Experiments:
[1] = biological target: C215Fab-SEE (not stated | not stated (staphylococcal)) (UniProt P12993); assay: SPR
[2] = biological target: 5T4Fab(V18)-SEA (not stated | not stated (staphylococcal)) (UniProt P0A0L2); assay: SPR
Chain of UniProt P0A0L2 (P0A0L2 whole entry, looked up): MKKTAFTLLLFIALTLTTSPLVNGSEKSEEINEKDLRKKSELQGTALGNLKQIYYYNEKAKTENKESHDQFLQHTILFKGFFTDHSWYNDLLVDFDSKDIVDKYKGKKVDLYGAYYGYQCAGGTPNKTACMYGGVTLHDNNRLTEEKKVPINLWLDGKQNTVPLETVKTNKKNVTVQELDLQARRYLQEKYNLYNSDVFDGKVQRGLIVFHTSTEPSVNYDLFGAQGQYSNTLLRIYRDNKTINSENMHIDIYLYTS

Substance: Recombinant soluble human MHC class II (HLA-DR1) in complex with HA peptide (from UniProt P01903) (peptide-MHC)
- Kd [1]: 1300 nM
- koff [1]: 0.0029 s⁻¹
- kon [1]: 2300 M⁻¹ s⁻¹
- Kd [2]: 400 nM
- koff [2]: 0.0011 s⁻¹
- kon [2]: 2800 M⁻¹ s⁻¹

Reference: PMC3806850
